Measured values from patent US20110124556 (published 2011).
Positions of bridges follow the written chain, without caps; N, C: chain ends. Non-standard residues stand in square brackets, D forms with d. Chains are numbered I, II in the order given. No end group written: not given here. Tyr(3-I) = N[C@@H](Cc1ccc(O)c(I)c1)C(=O)O; Hyp = O=C(O)[C@@H]1C[C@@H](O)CN1; Tic = O=C(O)[C@@H]1Cc2ccccc2CN1; Ac6c = NC1(C(=O)O)CCCCC1; βturn = not defined here

B1: S170 (peptide)
chain 1: CGFHENFYDWFVRQVSKK
chain 2: CGFHENFYDWFVRQVSKK
modifications: disulfide I:1-II:1; not fully specified; ends not checked
B2: S581 (peptide)
chain 1: SLEEEWAQIESEVWGR-βturn
chain 2: ESFYDWFERQLG
modifications: not fully specified; printed as SLEEEWAQIESEVWGR-βturn-ESFYDWFERQLG; ends and bridges not checked
B3: S378 (peptide)
chain 1: GSLDESFYDWFERQLGKKKX
chain 2: GSLDESFYDWFERQLGKKKX
modifications: listing feature
B4: S423 (peptide)
chain 1: ESFYDWFERQLGK
chain 2: ACAWPTYWNCG
modifications: ends and bridges not checked; also: two chains joined C-terminus to C-terminus, the link is not given here
B5: S432 (peptide)
chain 1: ESFYDWFERQLGGGGK
chain 2: CEVYGRGCPS
B6: S433 (peptide)
chain 1: ESFYDWFERQLGGGGK
chain 2: WLDQEWAWVQ
B7: S588 (peptide)
chain 1: LEEEWAQVECEV
chain 2: [Tyr(3-I)]GRGCSGSLDESFYDWFERQLG
modifications: ends and bridges not checked
B8: S441 (peptide)
chain 1: ESFYDWFERQLGGGGK
chain 2: WAWVQCEVYGRGCPS
B9: S444 (peptide)
chain 1: ESFYDWFERQLGGGGK
chain 2: VQCEVYGRGCPS
B10: S256 (peptide)
chain: [Ac6c]CLEE[dW]GASL[Tic]QCSG
modifications: not fully specified (bridges); printed as Acy-CLEEwGASL-Tic-QCSG; cysteine pairing not given here
B11: S591 (protein)
chain 1: LEEEWAQIECEVWGRGCSGSLDESF
chain 2: LEEEWAQIECEVWGRGCSGSLDESF
B12: S359 (peptide)
chain 1: XDWLQRNANFYDWFVAEL
chain 2: XDWLQRNANFYDWFVAEL
modifications: listing feature
B13: S437 (peptide)
chain 1: ESFYDWFERQLGGGGK
chain 2: LDQEWAWVQCEVYGRGCPS
B14: S454 (peptide)
chain 1: GSLDESFYDWFERQLGKKKX
chain 2: EWLDQEWAWVQCEVYGRGCPSEEKX
modifications: not fully specified; listing feature

Target: human insulin receptor (HIR) (human, UniProt P06213)
Test: competition

Going from WLDQEWAWVQCEVYGRGCPSGGSGGSGRVDWLQRNANFYDWFVAELG [S511] to FHENFYDAFVRQVSKK [S222], the Kd rises from 3.8 nM to > 20 nM.

Going from RD[Hyp]FYDWFDD[dI] [S268] to GSLDESFYDWFERQLGKKKS [S373], the Kd falls from 450 nM to 120 nM (3.8-fold). The second binds more tightly here.

Compared with QAPSNFYDWFVREWDEE [S287], B1 is 12-fold higher in Kd: 59 nM for the first, 700 nM for the second. The first binds more tightly here.

First: SLNFYDALQLLAKK [S119]
Second: SLEEEWAQIQAEVYGNPNSESFYDWFERQL [S602]
The Kd of the first is 580-fold higher: 18 nM for the first, 0.031 nM for the second.

Going from B2 to SLEEEWAQIQHELWPVEKGESFYDWFERQL (not fully specified (N-terminus); ends and bridges not checked) [S605], the Kd rises from 0.012 nM to 0.094 nM (7.8-fold).

Compared with WPGYAWLS [S317], SIEEEWAQIKCDVWGRGCSESFYDWFERQL [S556] is lower in Kd: > 20000 nM for the first, 0.032 nM for the second.

First: AAAAFYDWFAAAAAKK [S168]
Second: B3
The Kd of the first is 1.7-fold lower: 38 nM for the first, 65 nM for the second. The first binds more tightly here.

First: LDQEWAWVQCEAYGRGCPSESFYDWFERQL [S503]
Second: Ac-SIEEEWAQIKCDVWGRGSESFYDWFERQL (ends and bridges not checked) [S600]
The Kd of the first is 280-fold higher: 2.1 nM for the first, 0.0076 nM for the second.

Compared with SLEEEWAQIECEVWGRGCPSY [S592], SLEEEWAQVECEVYGRGCPSESFYDWFVRQLG [S555] is 300-fold lower in Kd: 17 nM for the first, 0.057 nM for the second.

SLEEEWAQIECEVWGRCWHHSFYDWFERQL [S594] and SLEEEWAQVEAEVYGRGAPSGSLDESFYDWFERQLG [S551] are within 1.5-fold of each other in Kd: 0.071 nM for the first, 0.072 nM for the second.

Compared with B4, B5 is 2.9-fold higher in Kd: 62 nM for the first, 180 nM for the second.

Compared with FHENAYDWFVRQVSKK [S219], LDQEWAQVQCEVYGRGCPSESFYDWFERQL [S533] is lower in Kd: > 2000 nM for the first, 0.067 nM for the second.

Going from B6 to RWPNFYGYFESLLTHFS [S257], the Kd rises from 110 nM to 14000 nM (130-fold). The first binds more tightly here.

First: B7
Second: B8
The Kd of the first is 670-fold lower: 0.18 nM for the first, 120 nM for the second.

First: SLEEEWAQIECEVWGRGCSESFYDWFERQL [S559]
Second: LEEEWAQVECEVYGRGCPSESFYDWFERQL [S536]
The Kd of the first is 4-fold lower: 0.021 nM for the first, 0.083 nM for the second.

Going from B9 to [dF][dH][dE][dN][dF][dY][dD][dW][dF][dV][dR][dQ][dV][dS][dK][dK] [S114], the Kd rises from 190 nM to 83000 nM (440-fold). The first binds more tightly here.

First: SLEEEWAQIESEVWGRSESFYDWFERQLG [S573]
Second: Ac-SIEEEWAQIKCDVWGRGPSESFYDWFERQLG (ends and bridges not checked) [S568]
The Kd of the first is 8.4-fold higher: 0.036 nM for the first, 0.0043 nM for the second.

Going from SIEEEWAQIKCDVWGRGCPPGLLDESFYHWFDRQLR [S520] to DWLQRNANFYDWFVAELX (listing feature) [S294], the Kd rises from 0.02 nM to 130 nM (6500-fold).

First: CGFHENFYDWFVRQVSKK (not fully specified; ends and bridges not checked) [S171]
Second: B10
The Kd of the first is 3.1-fold lower: 29000 nM for the first, 90000 nM for the second.

Compared with SSNFYQALMLLS [S129], B11 is 22000-fold lower in Kd: 2900 nM for the first, 0.13 nM for the second.

First: DWLQRNANFYDWFVAELG [S236]
Second: DPFYQGLWEWLRESGEE [S289]
The Kd of the first is lower: 100 nM for the first, > 2000 nM for the second. The first binds more tightly here.

B12 and FHENFYDWFVAQVSKK [S108] are within 1.5-fold of each other in Kd: 700 nM for the first, 750 nM for the second.

Compared with SLEEEWAQIECEVWGRGCPKGFYGWFRRRG [S582], SLEEEWAQIECEVWGRGCPKGFYGWFRRRRG [S584] is 3.7-fold higher in Kd: 2.5 nM for the first, 9.3 nM for the second. The first binds more tightly here.

Going from B13 to GSLDESFYDWFERQLGGGSGGSWLDEEWAQVQCEVYGRGCPS [S543], the Kd falls from 0.69 nM to 0.019 nM (36-fold). The second binds more tightly here.

Going from SLEEEWAQIECEVWGRGCPSESFYDWFERQL [S558] to SLEEEWAQIQCEVWGRGCPSESFYDWFERQL (not fully specified (N-terminus); ends and bridges not checked) [S606], the Kd falls from 0.019 nM to 0.004 nM (4.8-fold). The second binds more tightly here.

First: LDRQFYRYFQDLLVGFM [S260]
Second: NANFYDWFVAELG [S241]
The Kd of the first is 7-fold lower: 2300 nM for the first, 16000 nM for the second.

Going from B14 to SLEEEWAQVECEVYGRGCPPGLLDESFYHWFDRQLR [S553], the Kd falls from 0.38 nM to 0.0073 nM (52-fold). The second binds more tightly here.

AFYDWFAK [S180] and WGRSFYRYFETLLAQGI [S261] cannot be ordered by Kd: > 2000 nM for the first, > 20000 nM for the second.

Going from SLEEEWAQIEEVWGRSESFYDWFERQLG [S572] to SLEEEWAQVECEVYGRGCPS [S547], the Kd rises from 4.8 nM to 49 nM (10-fold). The first binds more tightly here.
